Reference: the supplement of paper PMC9170038

How the values were obtained:
[1] = tested on: MS2 coat protein; experiment: apparent KD of MS2 coat protein; designed switch direction (-1 OFF switch, 1 ON switch): 1; higher = weaker reporter binding
How it was run: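 The apparent KD reported per design is the median over clusters of curve fits to normalised cluster fluorescence. The RNA switches were transcribed on Illumina chips by stalled E. coli RNA polymerase. SNAP-549-labelled MS2 coat protein was titrated from 0.7 or 1.5 nM, doubling up to 3 µM, in Tris-HCl pH 7.5 buffer containing KCl, MgCl2, BSA, DTT, tRNA and Tween-20, with no input, 200 uM small-molecule ligand, or an oligonucleotide input.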

[2] = tested on: MS2 coat protein; experiment: apparent KD of MS2 coat protein; higher = weaker reporter binding; conditions: Eterna round: R107
How it was run: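 Apparent KD per design is the median of normalised cluster binding-curve fits. Designed RNA switches transcribed on-chip from Illumina sequencing clusters were titrated with SNAP-549-labelled MS2 coat protein in twofold steps from 0.7 or 1.5 nM to 3 µM, with 0.8–1.5 h down to 10–20 min per step. Buffer: 100 mM Tris-HCl pH 7.5, 80 mM KCl, 4 mM MgCl2, without or with constant ligand.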

[3] = Eterna round: R95, input ligand: FMN 200 uM
[4] = Eterna round: R95, input ligand: microRNA oligo, concentration not stated
[5] = Eterna round: R95, input ligand: none
[6] = input ligand: microRNA oligo, concentration not stated
[7] = input ligand: theophylline 20 uM
[8] = input ligand: theophylline 2 mM
[9] = input ligand: tryptophan 2.4 mM

Sequence | apparent KD of MS2 coat protein [1, 3] | apparent KD of MS2 coat protein [1, 4] | apparent KD of MS2 coat protein [1, 5] | apparent KD of MS2 coat protein ([1]; input ligand: FMN 200 uM) | apparent KD of MS2 coat protein [1, 6] | apparent KD of MS2 coat protein ([1]; input ligand: none) | further results
AAAACACAUGAGGAUCACCCAUGUACCAGGUACAUAGGAUAUCCAGGCGCCAAAUAGCGCGGAGAAGGAUGGAAAA [Radireatdi] (puzzle: Same State 1) | 78.2 nM | 237 nM | 1760 nM |  |  |  | 
AAAAUAAGCCCUUGCACAUGAGGAUCACCCAUGUUCGGUUCACAGGAUAUCUAGUCAAACGGGCUGGAGAAGGGUGGCAAGGAC [Xequusceus] (Eterna round: R96, puzzle: Same State NG 3) |  |  |  | 67.7 nM | 278 nM | 227 nM | 
AAAAUACAUGAGGAUCACCCAUGUAGAAACUACACAGGAUAUCGGACGGCUGUAGCCAAACGAGAAGGGUGAACCC [Ramazaza] (puzzle: Same State 1) | 90.8 nM | 60.8 nM | 92 nM |  |  |  | 
AAAAUGGGAUUUUACAUGAGGAUCACCCAUGUGGGUAUCACUGAGGAUAUGAGGAUCUUGAAAAAUCAGAAGGCAGAAUUUCAA [AK SSNG3-V2-21] (Eterna round: R96, puzzle: Same State NG 3) |  |  |  | 410 nM | 288 nM | 329 nM | 
AAACGAAACACGGCCACAUGAGGAUCACCCAUGUCGAGUUCACAGGAUAUACCUACGUCCUCGUGGUAGAAGGGUGAGGCUGUG [Rienat] (Eterna round: R96, puzzle: Same State NG 3) |  |  |  | 750 nM | 39.5 nM | 215 nM | 
AAAGAAAACGCAGGAUAUCCCGGAAUGGAACCGGGAGAAGGGUGACCGGUACAUGAGGAUCACCCAUGUAGAGCAAAGGCUCAA [Oninqu] (Eterna round: R96, puzzle: Same State NG 1) |  |  |  | 78 nM | 114 nM | 124 nM | 
AAAGCCCGUGCUAAGGAUAUGCGUACUCCUACAUGAGGAUCACCCAUGUCCCGCCGAAAAGGAAGGCAGAAGGUAGCACGGGCAA [Letiso] (puzzle: Same State 2) | 48.3 nM | 114 nM | 126 nM |  |  |  | 
AAAGUACAUGAGGAUCACCCAUGUCCAAACAAGUAAGGAUAUACGAAAACAAAACAAAAUGUAGAAGGUACAACAA [Same State 1 #2] (puzzle: Same State 1) | 18.1 nM | 17.9 nM | 26.4 nM |  |  |  | 
AAAGUGCCGACGAAGGAUAUAGCGGGUGAGACAUGAGGAUCACCCAUGUAUGCAGAACUCAUCCUCUAGAAGGUUGAGACGGCUA [Bionlateat] (Eterna round: R96, puzzle: Same State 2) |  |  |  | 151 nM | 31.1 nM | 95.9 nM | 
AACAAUCUAUCUGAGGAUAUCAUGAAAUAAACAUGAGGAUCACCCAUGUGCAGGAAAACUGUAUAUGAGAAGGCAGAUAGAUUGA [salish99_ss2_r3_046] (puzzle: Same State 2) | 14.8 nM | 69.2 nM | 101 nM |  |  |  | 
AACAAUCUAUCUGAGGAUAUCAUGAAAUAAACAUGAGGAUCACCCAUGUGCAGGAAAUCUGCAUAUGAGAAGGCAGAUAGAUUGA [salish99_ss2_r3_043] (Eterna round: R96, puzzle: Same State 2) |  |  |  |  | 672 nM |  | 
AACAAUCUAUCUGAGGAUAUCAUGAAAUAAACAUGAGGAUCACCCAUGUGCAGGAAAUCUGCAUAUGAGAAGGCAGAUAGAUUGA [salish99_ss2_r3_043] (puzzle: Same State 2) | 33.9 nM | 1240 nM | 4600 nM |  |  |  | 
AACAUGAGGAUCACCCAUGUAGAAAAGUGAGGCAGCUCAGGGAAGGAUAUGGUUGACACCCUCGACCAGAAGGUCCAAAAUAAA [Argeatonra] (Eterna round: R96, puzzle: Same State NG 3) |  |  |  | 31.2 nM | 54.2 nM | 63.6 nM | 
AACAUGAGGAUCACCCAUGUCAGGUCGCCAACCUACAUGAGGAAGGAUAUAGCCUCGAAUAUUGGCUAGAAGGUCCUCAUGAAU [Tieson] (Eterna round: R96, puzzle: Same State NG 3) |  |  |  | 320 nM | 16.4 nM | 39.9 nM | 
AAGAAAGACGCAGGAUAUCAGUGCAAACCGCACUGAGAAGGGUGAGACAUGAGGAUCACCCAUGUAACACGGCAAAACACCGUG [Teinre] (Eterna round: R96, puzzle: Same State NG 1) |  |  |  | 1240 nM | 49.3 nM | 191 nM | 
UUCAGCUAGUCGGCCGCCACUACCUGAGGAUCACCCUGGUAGGUCCACACUGCUUCGGCAGUGAGUAGGACCGGGACUAGCUGAG |  |  |  |  |  |  | apparent KD of MS2 coat protein ([2]; input ligand: arginine 13.2 mM): 18.3 nM; apparent KD of MS2 coat protein ([2]; input ligand: none): 23.2 nM; apparent KD of MS2 coat protein [2, 7]: 25.2 nM; apparent KD of MS2 coat protein [2, 8]: 19 nM; apparent KD of MS2 coat protein [2, 9]: 52.7 nM
UUCAUGAGGAUUGAUACCAGCCACCAACAUGAGGAACUUACAUGAGGAUCACCCAUGUGAGGCCCUUGGCAGCAAGCAUACAUGA [Exclusion Theophylline B 3] |  |  |  |  |  |  | apparent KD of MS2 coat protein ([2]; input ligand: arginine 13.2 mM): 10.1 nM; apparent KD of MS2 coat protein ([2]; input ligand: none): 10.6 nM; apparent KD of MS2 coat protein [2, 7]: 16.7 nM; apparent KD of MS2 coat protein [2, 8]: 48.5 nM; apparent KD of MS2 coat protein [2, 9]: 11.5 nM
